Where “and” joins values, the source holds several entries; their conditions need not be identical. Equal values may be shown once.
How the values were obtained:
[1] = target: Recombinant his-tagged HA1 from H7N7 strain A/Chicken/Netherlands/01/03 (Abcam Cat. No. ab61286) (Influenza A virus A/Chicken/Netherlands/01/03 (H7N7))
[2] = target: recombinant his-tagged HA0 trimer from H5N1 strain A/Anhui/1/2005 (Abcam, Cat. No. ab53938) (influenza A virus A/Anhui/1/2005 (H5N1)); test: ELISA on recombinant haemagglutinin, detection with rabbit anti-NANOBODY serum
[3] = target: recombinant his6-tagged haemagglutinin HA1, Abcam ab53875; test: as above
[4] = substrate: F protein of hRSV strain Long (human respiratory syncytial virus, strain Long) (UniProt P12568); test: cell-based or functional assay
[5] = target: Rabies virus glycoprotein G, strain CVS-11 (ATCC VR 959) (Rabies virus, strain CVS-11 (genotype 1)); test: cell-based or functional assay
[6] = target: Rabies virus glycoprotein G, ERA strain (attenuated vaccine strain, ATCC VR332) (Rabies virus, ERA strain (genotype 1 lyssavirus)) (UniProt P03524); test: cell-based or functional assay
[7] = target: Rabies virus glycoprotein G, Challenge Virus Standard (CVS)-11 strain (Rabies virus, strain CVS-11 (genotype 1 Lyssavirus)) (UniProt O92284); test: cell-based or functional assay
[8] = substrate: F protein of hRSV strain B-1 (human respiratory syncytial virus, strain B-1 (ATCC VR-1580)) (UniProt P13843); test: cell-based or functional assay
[9] = substrate: F protein of hRSV strain Long (human respiratory syncytial virus, strain Long (ATCC VR-26)) (UniProt P12568); test: cell-based or functional assay

B1: IV21 (yeast-produced NANOBODY (VHH sequence)) (VHH)
VHH: QVQLQQSGGGLVQAGGFLRLSCAASGRSFNTYAMGWFRQAPGKEREFVAGITRSGTATDYIDSVKGRFTISRDNARDTVYLQMNRLNPEDSAVYYCAAHANYDRMINSEYKYWGQGTQVTVSS
ELISA titer (NANOBODY concentration giving extinction 1) [1]: 69 ng/mL

B2: IV1 (yeast-produced NANOBODY (VHH sequence)) (VHH)
VHH: QVQLQESGGGLVETGGSLRLSCAASGRTFGGYALAWFRQAPGKGREFVAAVTWTSGTTNYAGSVKDRFTVSRDNAGNTMYLQMNSLRPEDTAVYICGAASGYRSPDRLSEPNWVNYWGQGTQVTVSS
ELISA titer (NANOBODY concentration giving extinction 1) [1]: 62.2 ng/mL

B3: IV133 (VHH)
VHH: QVQLQQSGGGLVQPGGSLRLSCAASSSGFSFNPMGWYRQAPGKQRELVATMTSGGTTNYADSVKGRFTISRDNAKTTVYLQMNSLKPEDTAVYYCNARGPRRATTGWITDDYWGQGTQVTVSS
ELISA titer (NANOBODY concentration giving extinction 1) [2]: 39.1 ng/mL | ELISA titer (NANOBODY concentration giving extinction 1) [3]: 32.5 ng/mL

B4: IV157 (VHH)
VHH: QVQLQQSGGGLVQPGGSLRLSCAASRSDISFNPMGWYRQAPGKQRELVATISNGGTTNYADSVKGRFTISQDNAKTTVYLQMNSLKPEDTAVYYCNGRGPRYATTGWYTDDYWGQGTQVTVSS
ELISA titer (NANOBODY concentration giving extinction 1) [2]: 30.6 ng/mL | ELISA titer (NANOBODY concentration giving extinction 1) [3]: 9.9 ng/mL

B5: IV156 (VHH)
VHH: QVQLQQSGGGLVQPGGSLRLSCAASRSGFSFNPMGWYRQAPGKQRELVATITSGGTTNYADSVKGRFTISTDNAKTTVFLQMNSLKPEDTAVYYCNGRGPRRGTAGWFTDDYWGQGTQVTVSS
ELISA titer (NANOBODY concentration giving extinction 1) [2]: 51.9 ng/mL | ELISA titer (NANOBODY concentration giving extinction 1) [3]: 33 ng/mL

B6: IV144 (VHH)
VHH: QVQLQQSGGGLVQAGGSLRLSCAASGNIISFNPMGWHRQAPGKQRELVASITSGGSISYVDSVKGRFTISRDSAKNTIYLQMNSLKPEDTAVYFCAGEGPRRRGSTWYTDTYWGQGTQVTVSS
ELISA titer (NANOBODY concentration giving extinction 1) [2]: 33.1 ng/mL | ELISA titer (NANOBODY concentration giving extinction 1) [3]: 34.8 ng/mL

B7: IV25 (yeast-produced NANOBODY (VHH sequence)) (VHH)
VHH: QVQLQQSGGGLVQSGGSLSLSCAASGITLNNRVVGWFRQAPGKEREFVGRIMWSVGDTFYARSVKGRFTISRDNAKNTMYLQMNALKPEDTAVYYCAAARDPDLYTGQYEYWGQGTQVTVSS
ELISA titer (NANOBODY concentration giving extinction 1) [1]: 27.8 ng/mL

B8: IV146 (VHH)
VHH: QVQLQQSGGGLVQAGGSLRLSCAASGSSFSINAMGWYRQAPGKQRELVAAISSGGSANYADSVKGRFTISRDNAKNTVYLQMNSLKPEDTAVYYCNAGSRFNPFGSAYDYWGQGTQVTVSS
ELISA titer (NANOBODY concentration giving extinction 1) [2]: 162 ng/mL | ELISA titer (NANOBODY concentration giving extinction 1) [3]: 62.9 ng/mL

B9: IV5 (yeast-produced NANOBODY (VHH sequence)) (VHH)
VHH: QVQLQQSGGGLVQAGGSLRLSCAASGRTFSTTGMGWFRQAPGKEREFVAAFWWTGGQTFYADSVKGRFTISGDNAGNTVDLQMNSLKPEDTAVYACAAMSKPRNLWRTDSYDYWGQGTQVTVSS
ELISA titer (NANOBODY concentration giving extinction 1) [1]: 30.7 ng/mL

B10: IV26 (yeast-produced NANOBODY (VHH sequence)) (VHH)
VHH: QVQLQESGGGLVRTGDSLRLSCAASGRTFNGYAMAWFRQAPGKGREFVAAVTWSSGTTNYAGSVKDRFTVSRDNANNTMYLQMNSLKPEDTAVYICGAASGYRSTDRLSDPAWTNYWGQGTQVTVSS
ELISA titer (NANOBODY concentration giving extinction 1) [1]: 80.6 ng/mL

B11: IV155 (VHH)
VHH: QVQLQESGGGLVQAGGSLRLSCAASGRSLSRYAMGWFRQAPGKEREFVATKTSGGVTYYGASVKGRFTISRDNAKNMVYLQMNSLNPEDTAIYYCAAGTDAIFKPWMLPDYWGQGTQVTVSG
ELISA titer (NANOBODY concentration giving extinction 1) [2]: > 10000 ng/mL | ELISA titer (NANOBODY concentration giving extinction 1) [3]: > 10000 ng/mL

B12: IV154 (VHH)
VHH: QVQLQESGGGLVQAGGSLRLSCAASGRPFSSAAMGWFRQAPGKEREFVSAISYTGDVTRYADSVKGRFTISRDNTRNTLTLEMNSLKPEDTAVYYCAARTYAGVRAHTYDYDYWGQGTQVTVSS
ELISA titer (NANOBODY concentration giving extinction 1) [2]: > 10000 ng/mL | ELISA titer (NANOBODY concentration giving extinction 1) [3]: > 10000 ng/mL

B13: LG192C10 (VHH)
VHH: EVQLVESGGGLVQAGGSLRLSCAASEGYFRNYMVGWFRQAPGGERMFVAAISDTAYYADSVKGRFTISRDNAKNTVYLPMNSLKPEDTAVYYCAAAPKSWGTWPLVADTRSYHFWGQGTQVTVSS
hRSV micro neutralization, strain Long on Hep2 cells [4]: > 3 µM

B14: LG192C6 (VHH)
VHH: EVQLVESGGGLVQAGGSLRLSCEASGRTERYQAMGWFRQAPGKEREFVAVVTRWSGARTVYADSVKGRFTISRDNAENTVYLQMNSLKPEDTAVYTCAADSTNRNRGAIYYTWAYDYWGQGTQVTVSS
hRSV micro neutralization, strain Long on Hep2 cells [4]: > 3 µM

B15: LG192H2 (VHH)
VHH: EVQLVESGGGLVQAGGSLRLSCEASGRTFSNYAMGWFRQAPGKEREFVAVVTRWSGGRTVYADSVKGRFTISRDNAENTVYLQMNSLKPEDTAVYTCAADSTNRNSGAWYYTWAYDHWGQGTQVTVSS
hRSV micro neutralization, strain Long on Hep2 cells [4]: > 3 µM

B16: IV131 (VHH)
VHH: QVQLQQSGGGLVQAGGSLRLSCAASGSGFSFNPMGWYRQAPGKQRELVASITSGGTTNYVDSVKGRFTISRGNAKNTVYLQMNSLKPEDTAVYYCAAEGPRRRGSTWYTDNYWGQGTQVTVSS
ELISA titer (NANOBODY concentration giving extinction 1) [2]: 36.8 ng/mL | ELISA titer (NANOBODY concentration giving extinction 1) [3]: 32 ng/mL

B17: IV29 (yeast-produced NANOBODY (VHH sequence)) (VHH)
VHH: QVQLQESGGGLVQAGGSLRLSCVASGRTLDNYAMGWFRQAPGAEREFVGAISANGEDTQYTESVQGRFTISKDNAKSTVYLDMNSLKPEDTAVYYCAADRKTLTYYTSRLRSRYEYWGQGTQVTVSS
ELISA titer (NANOBODY concentration giving extinction 1) [1]: 7.2 ng/mL

B18: LG213H7 (VHH)
VHH: EVQLVESGGGLVQAGGSLRLSCAASGRTLSSYRMGWFRQAPGKEREFISTISWNGRSTYYADSVKGRFIFSEDNAKNTVYLQMNSLKPEDTAVYYCAAALIGGYYSDVDAWSYWGPGTQVTVSS
CVS neutralizing antibody titer: IU/mg [5]: 30.1 IU/mg and 12.6 IU/mg | CVS neutralizing antibody titer: IU/ml [5]: 4.22 IU/ml and 1.76 IU/ml | CVS neutralizing antibody titer: IU/µM [5]: 0.45 IU/µM and 0.19 IU/µM | CVS neutralizing antibody titer: nM IC50 [5]: 62.5 nM and 156 nM | ERA neutralizing antibody titer (RFFIT): EU/mg [6]: 87.4 EU/mg | ERA neutralizing antibody titer (RFFIT): EU/ml [6]: 12.2 EU/ml | ERA neutralizing antibody titer (RFFIT): EU/µM [6]: 1.3 EU/µM | ERA neutralizing antibody titer (RFFIT): nM IC50 [6]: 25.6 nM | CVS-11 neutralizing antibody titer (RFFIT), IU/mg [7]: 12.2 IU/mg | CVS-11 neutralizing antibody titer (RFFIT), IU/ml [7]: 1.71 IU/ml | CVS-11 neutralizing antibody titer (RFFIT), IU/µM [7]: 0.18 IU/µM | CVS-11 neutralizing antibody titer (RFFIT), nM IC50 [7]: 191 nM

B19: IV37 (yeast-produced NANOBODY (VHH sequence)) (VHH)
VHH: QVQLQESGGGLVQAGDSLRLSCAAPGRSFSGGAMSWFRQVPGKEREFVAAIRWSGGGIRYADSVKGRFTISRDNAKNTFYLQMNSLKPEDTAVYYCAIDPRADLVATMTSIRYWGQGTQVTVSS
ELISA titer (NANOBODY concentration giving extinction 1) [1]: 31.4 ng/mL

B20: NC41v06 (VHH)
VHH: EVQLLESGGGLVQPGGSLRLSCAASGGSLSNYVLGWFRQAPGKGREFVAAINWRDDITIGPPNVEGRFTISRDNAKNTLYLQMNSLRPEDTAVYYCGAGTPLNPGAYIYDWSYDYWGQGTLVTVSS
Neutralization IC50 (nM), B-1 (first assay) [8]: 806 nM | Neutralization IC50 (nM), Long (first assay) [9]: 111 nM

B21: NC41v18 (VHH)
VHH: EVQLLESGGGLVQPGGSLRLSCAASGGSLSNYVLGWFRQAPGKGREFVAAINWRDDITIGPPNVEGRFTISRDNSKNTLYLQMNSLRPEDTAVYYCGAGTPLNPGAYIYDWSYDYWGQGTLVTVSS
Neutralization IC50 (nM), B-1 (first assay) [8]: 728 nM | Neutralization IC50 (nM), B-1 (second assay) [8]: 194 nM | Neutralization IC50 (nM), Long (first assay) [9]: 116 nM | Neutralization IC50 (nM), Long (second assay) [9]: 98 nM

B22: NC41 (VHH)
VHH: EVQLVESGGGLVQAGGSLSISCAASGGSLSNYVLGWFRQAPGKEREFVAAINWRGDITIGPPNVEGRFTISRDNAKNTGYLQMNSLAPDDTAVYYCGAGTPLNPGAYIYDWSYDYWGRGTQVTVSS
Neutralization IC50 (nM), B-1 (first assay) [8]: 4710 nM | Neutralization IC50 (nM), B-1 (second assay) [8]: 3290 nM | Neutralization IC50 (nM), Long (first assay) [9]: 202 nM | Neutralization IC50 (nM), Long (second assay) [9]: 122 nM

B23: NC41v03 (VHH)
VHH: EVQLLESGGGLVQPGGSLRISCAASGGSLSNYVLGWFRQAPGKGREFVAAINWRGDITIGPPNVEGRFTISRDNSKNTLYLQMNSLRPEDTAVYYCGAGTPLNPGAYIYDWSYDYWGQGTLVTVSS
Neutralization IC50 (nM), B-1 (first assay) [8]: 1510 nM | Neutralization IC50 (nM), Long (first assay) [9]: 255 nM
